This is an account of results in patent US20220026415A1, “A METHOD FOR SCREENING A THERAPEUTIC AGENT FOR CANCER USING BINDING INHIBITOR OF CYCLIN-DEPENDENT KINASE 1 (CDK1)-CYCLIN B1 AND RETINOIC ACID RECEPTOR RESPONDER 1 (RARRES1) GENE KNOCKOUT ANIMAL MODEL” (NATIONAL CANCER CENTER, priority 2018, published 2022).

The subject of this assay is HEK293 cells. Put plainly: Cell cycle distribution after release from double thymidine block, flow cytometry. Format: cell-based. How it is done: In the case of a double thymidine block (DTB) synchronized at the G1/S boundary, HEK293 cells were incubated with 2 mM thymidine for 16 hours and maintained in a normal medium for 10 hours, and then 2 mM thymidine was further added thereto for 16 hours.
For analysis of cell cycles or sub-G1 DNA contents, cells were immobilized with 80% ice-cold ethanol, and stored at 4° C. The cells were stained with PBS containing 50 ug/ml of propidium iodide (PI) and 100 ug/ml of RNase A at 37° C. for 30 minutes. DNA content was analyzed by FACS Calibur flow cytometry and the results thereof were analyzed using Cellquest software (Becton-Dickinson Immunocytometry Systems, San Diego, Calif.) and Modfit LT 3.3 software. At least 10,000 cells were analyzed per sample.
To evaluate whether the reduced cell growth observed in RARRES1-overexpressing cells was due to altered cell cycle progression, HEK293 cells were transfected with green fluorescent protein (GFP) tagged-RARRES1 or -empty vector (Ctrl) according to the method of Example 1-1, and the cells were observed by live cell imaging according to Example 1-6. From now on, all data shown was regarded as isoform 1 since there was no difference between the two isoforms of RARRES1 in the above experiments, and it was named ‘RARRES1.’ In HEK293 cells transfected with a GFP control (Ctrl) according to the method of Example 1-1, the cells underwent normal cell cycle progression. A cell entered into mitosis (round shape) within 1 hour, and was separated into two daughter cells within at least 2.5 hours (see FIG. 5A, top panel). […] To confirm mitotic arrest induced by RARRES1 overexpression, GFP-control or GFP-RARRES1-overexpressing 293 cells and 293 cells transfected with a red fluorescent protein (RFP) lentivirus used to label GFP non-transfected cell, according to Example 1-3 were co-cultured, and changes in the number of fluorescence-expressing cells (see FIG. 5B) were monitored. […] Under co-culture conditions of GFP-control coupled with RFP virus-transfected cells, the numbers of both fluorescence-expressing cells were increased over time. […]
A general note: Flow cytometry measures light scatter and fluorescence of single cells or particles in a stream.

B1: RARRES1: RARRES1 isoform 1 overexpressed in HEK293 cells by transfection with an expression vector (protein)
chain: MQPRRQRLPAPWSGPRGPRPTAPLLALLLLLAPVAAPAGSGDPDDPGQPQDAGVPRRLLQQAARAALHFFNFRSGSPSALRVLAEVQEGRAWINPKEGCKVHVVFSTERYNPESLLQEGEGRLGKCSARVFFKNQKPRPTINVTCTRLIEKKKRQQEDYLLYKQMKQLKNPLEIVSIPDNHGHIDPSLRLIWDLAFLGSSYVMWEMTTQVSHYYLAQLTSVRQWKTNDDTIDFDYTVLLHELSTQEIIPCRIHLVWYPGKPLKVKYHCQELQTPEEASGTEEGSAVVPTELSNF
With B1, the “cells in the G2/M phases” value is, setting by setting: (4 hours after release from DTB, control 21.38%) 29.85%; (6 hours after release from DTB, control 77.41%) 80.91%; (8 hours after release from DTB, control 45.47%) 54.46%.
